B1: Viral protein p35: known viral protein caspase inhibitor, expressed from YCpGAL1-p35-U vector (protein)
chain: MCVIFPVEIDVSQTIIRDCQVDKQTRELVYINKIMNTQLTKPVLMMFNISGPIRSVTRKNNNLRDRIKSKVDEQFDQLERDYSDQMDGFHDSIKYFKDEHYSVSCQNGSVLKSKFAKILKSHDYTDKKSIEAYEKYCLPKLVDERNDYYVAVCVLKPGFENGSNQVLSFEYNPIGNKVIVPFAHEINDTGLYEYDVVAYVDSVQFDGEQFEEFVQSLILPSSFKNSEKVLYYNEASKNKSMIYKALEFTTESSWGKSEKYNWKIFCNGFIYDKKSKVLYVKLHNVTSALNKNVILNTIK
B2: Human Tissue Inhibitor of Metalloprotease-3: product encoded by human brain cDNA, identified as caspase inhibitor (protein)
chain: CTCSPSHPQDAFCNSDIVIRAKVVGKKLVKEGPFGTLVYTIKQMKMYRGFTKMPHVQYIHTEASESLCGLKLEVNKYQYLLTGRVYDGKMYTGLCNFVERWDQLTLSQRKGLNYRYHLGCNCKIKSCYYLPCFVTSKNECLWTDMLSNFGYPGYQSKHYACIRQKGGYCSWYRGWAPPDKSIINATDP
B3: Human Death Associated Protein 1: product encoded by human brain cDNA; also known as DAP-1 (protein)
chain: MSSPPEGKLETKAGHPPAVKAGGMRIVQKHPHTGDTKEEKDKDDQEWESPSPPKPTVFISGVIARGDKDFPPAAAQVAHQKPHASMDKHPSPRTQHIQQPRK
B4: Human hnRNP D: product encoded by human brain cDNA, identified as caspase inhibitor (protein, UniProt Q14103 2-355, looked up)
Heterogeneous nuclear …: SEEQFGGDGAAAAATAAVGGSAGEQEGAMVAATQGAAAAAGSGAGTGGGTASGGTEGGSAESEGAKIDASKNEEDEGHSNSSPRHSEAATAQREEWKMFIGGLSWDTTKKDLKDYFSKFGEVVDCTLKLDPITGRSRGFGFVLFKESESVDKVMDQKEHKLNGKVIDPKRAKAMKTKEPVKKIFVGGLSPDTPEEKIREYFGGFGEVESIELPMDNKTNKRRGFCFITFKEEEPVKKIMEKKYHNVGLSKCEIKVAMSKEQYQQQQQWGSRGGFAGRARGRGGGPSQNWNQGYSNYWNQGYGNYGYNSQGYGGYGGYDYTGYNNYYGYGDYSNQQSGYGKVSRRGGHQNSYKPY
B5: Human Myelin Basic Protein: product encoded by human brain cDNA, identified as caspase inhibitor (protein)
chain: MASQKRPSQRHGSKYLATASTMDHARHGFLPRHRDTGILDSIGRFFGGDRGAPKRGSGKDSHHPARTAHYGSLPQKSHGRTQDENPVVHFFKNIVTPRTPPPSQGKGRGLSLSRFSWGAEGQRPGFGYGGRASDYKSAHKGFKGVDAQGTLSKIFKLGGRDSRSGSPMARR
B6: Human Ubiquitin C-terminal Hydrolase: product encoded by human brain cDNA; also known as UHX1 (protein)
chain: MAVAPRLFGGLCFRFRDQNPEVAVEGRLPISHSCVGCRRERTAMATVAANPAAAAAAVAAAAAVTEDREPQHEELPGLDSQWRQIENGESGRERPLRAGESWFLVEKHWYKQWEAYVQGGDQDSSTFPGCINNATLFQDEINWRLKEGLVEGEDYVLLPAAAWHYLVSWYGLEHGQPPIERKVIELPNIQKVEVYPVELLLVRHNDLGKSHTVQFSHTDSIGLVLRTARERFLVEPQEDTRLWAKNSEGSLDRLYDTHITVLDAALETGQLIIMETRKKDGTWPSAQLHVMNNNMSEEDEDFKGQPGICGLTNLGNTCFMNSALQCLSNVPQLTEYFLNNCYLEELNFRNPLGMKGEIAEAYADLVKQAWSGHHRSIVPHVFKNKVGHFASQFLGYQQHDSQELLSFLLDGLHEDLNRVKKKEYVELCDAAGRPDQEVAQEAWQNHKRRNDSVIVDTFHGLFKSTLVCPDCGNVSVTFDPFCYLSVPLPISHKRVLEVFFIPMDPRRKPEQHRLVVPKKGKISDLCVALSKHTGISPERMMVADVFSHRFYKLYQLEEPLSSILDRDDIFVYEVSGRIEAIEGSREDIVVPVYLRERTPARDYNNSYYGLMLFGHPLLVSVPRDRFTWEGLYNVLMYRLSRYVTKPNSDDEDDGDEKEDDEEDKDDVPGPSTGGSLRDPEPEQAGPSSGVTNRCPFLLDNCLGTSQWPPRRRRKQLFTLQTVNSNGTSDRTTSPEEVHAQPYIAIDWEPEMKKRYYDEVEAEGYVKHDCVGYVMKKAPVRLQECIELFTTVETLEKENPWYCPSCKQHQLATKKLDLWMLPEILIIHLKRFSYTKFSREKLDTLVEFPIRDLDFSEFVIQPQNESNPELYKYDLIAVSNHYGGMRDGHYTTFACNKDSGQWHYFDDNSVSPVNENQIESKAAYVLFYQRQDVARRLLSPAGSSGAPASPACSSPPSSEFMDVN
B7: Glutamate-Binding Subunit of a Human NMDA Receptor Complex: product encoded by human brain cDNA, identified as caspase inhibitor (protein)
chain: MSHEKSFLVSGDNYPPPNPGYPGGPQPPMPPYAQPPYPGAPYPQPPFQPSPYGQPGYPHGPSPYPQGGYPQGPYPQGGYPQGPYPQEGYPQGPYPQGGYPQGPYPQSPFPPNPYGQPQVFPGQDPDSPQHGNYQEEGPPSYYDNQDFPATNWDDKSIRQAFIRKVFLVLTLQLSVTLSTVSVFTFVAEVKGFVRENVWTYYVSYAVFFISLIVLSCCGDFRRKHPWNLVALSVLTASLSYMVGMIASFYNTEAVIMAVGITTAVCFTVVIFSMQTRYDFTSCMGVLLVSMVVLFIFAILCIFIRNRILEIVYASLGALLFTCFLAVDTQLLLGNKQLSLSPEEYVFAALNLYTDIINIFLYILTIIGRAKE

Target: T1, human caspase-8β (Homo sapiens, UniProt Q14790)
T1 construct: expressed in transfected cells; host or cells: Saccharomyces cerevisiae FY250, single-copy ARS/CEN vector YCpGAL1-caspase-8β-L, GAL1 promoter
T1 sequence (Q14790 1-464 isoform Q14790-2): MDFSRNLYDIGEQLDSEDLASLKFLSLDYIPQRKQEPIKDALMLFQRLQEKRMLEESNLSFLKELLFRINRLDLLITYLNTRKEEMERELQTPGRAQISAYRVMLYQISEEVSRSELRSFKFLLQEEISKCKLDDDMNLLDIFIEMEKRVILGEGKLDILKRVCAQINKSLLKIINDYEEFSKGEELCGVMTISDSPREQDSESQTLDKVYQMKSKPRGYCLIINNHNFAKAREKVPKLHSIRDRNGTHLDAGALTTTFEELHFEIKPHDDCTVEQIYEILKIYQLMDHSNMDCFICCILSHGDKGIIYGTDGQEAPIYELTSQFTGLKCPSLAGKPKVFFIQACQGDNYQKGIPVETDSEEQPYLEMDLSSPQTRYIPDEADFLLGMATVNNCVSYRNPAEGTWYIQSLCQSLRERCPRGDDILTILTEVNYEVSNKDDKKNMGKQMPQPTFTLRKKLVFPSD
Assay: Yeast screening method: suppression of caspase-8β-induced lethality in S. cerevisiae FY250 double transformants on galactose medium
Assay type: cell-based
Details: FY250 co-transformed with YCpGAL1-p35-U and YCpGAL1-caspase-8β-L; SC-leucine-uracil medium with galactose
Excerpt: The invention includes a screening method of determining whether a compound is a caspase modulator. […] A difference between the viability indicator of the first cell and the viability indicator of the second cell is an indication that the compound is a caspase modulator.
As described herein, the transformant expresses the caspase when an inducer of the inducible promoter of the caspase vector is provided to the caspase transformant. When the caspase transformant expresses the caspase, cytotoxicity ensues in the caspase transformant. If an inhibitor of the caspase is provided to the caspase transformant prior to the onset of cytotoxicity, the caspase transformant may be enabled to survive expression of the caspase or the onset of cytotoxicity may be delayed.
The gene encoding p35 was cloned into a yeast-based expression vector designated YCpGAL1-U (wherein U designates a URA3 selectable marker) to yield a YCpGAL1-p35-U inhibitor vector. Yeast cells were co-transformed with the inhibitor vector, YCpGAL1-p35-U, and with the caspase vector, YCpGAL1-caspase-8β-L, to yield a double transformant. Double transformants were plated on SC-leucine-uracil medium supplemented with dextrose to repress GAL1 promoter function. Serial ten-fold dilutions of individual double transformants grown in SC-leucine-uracil medium containing dextrose were prepared and spotted onto SC-leucine-uracil medium comprising dextrose or galactose.
Individual viable colonies of double transformant are isolated, and the test vector comprising the unknown cDNA is isolated.
The screening method used in this Example was performed as follows. A yeast double transformant was prepared by transforming S. cerevisiae strain FY250 with two yeast expression vectors. The first yeast expression vector comprised cDNA encoding a self-activating form of human caspase-8β operably linked to a GAL1 promoter and a LEU2 selectable marker. This first vector was a single copy vector and was designated YCpGAL1-caspase-8β-L. A plurality of second yeast expression vectors was used, each comprising a single random human cDNA sequence operably linked to a GAL1 promoter and a URA3 selectable marker. The cDNA sequences used to generate the plurality of second yeast expression vectors were obtained from a library of cDNAs prepared from human brain cells. The second vectors were multicopy vectors.
Double transformants were propagated on plates containing SC-leucine-uracil agar comprising dextrose. Colonies of double transformants were replica plated on plates containing medium comprising galactose, whereby expression of caspase-8β and of any product encoded by the cDNA of the second vector was induced. […] The second vector was recovered from individual colonies of double transformants which were able to survive on the galactose-containing medium and used, along with the first vector, to transform fresh FY250 cells. […] The identity of individual products encoded by the cDNA of individual second vectors was established by determining the nucleotide sequence of the cDNA and comparing the sequence with databases of known human gene sequences, including Genbank, the EST Database, and the Human Genome Database.

Molecule	survival of double transformants on galactose-containing test medium
B1	survived on this medium

Same assay, conditions: FY250 double transformants, GAL1-driven expression, galactose-containing medium

Molecule	identified as a caspase inhibitor (product of human brain cDNA suppressing caspase-8β-induced cell death)
B2	caspase inhibitor
B3	caspase inhibitor
B4	caspase inhibitor
B5	caspase inhibitor
B6	caspase inhibitor

Same assay, conditions: Table 1 Caspase Modulators; identified using the screening method of the invention

Molecule	Caspase Inhibitor
B2	✓
B3	✓
B4	✓
B5	✓
B6	✓
B1	✓
B7	✓

— patent US20010006793A1, “MODULATORS OF EUKARYOTIC CASPASES” (priority 1998, published 2001)
